Target: T1, purified human alpha globin, biotinylated and immobilized on streptavidin biosensors (human, UniProt P69905 2-142, biotinylated using EZ-Link NHS-PEG4 Biotinylation Kit (sites not given))
T1 construct: Ligand on the sensor in the bio-layer interferometry assay; also called full-length alpha globin
Assay: bio-layer interferometry (Octet RED96), biotinylated alpha globin on streptavidin sensors, AHSP in solution at 62.5-1000 nM; AHSP as analyte on immobilized alpha globin (FIG. 2D)

T1 sequence (P69905 2-142 limits assumed): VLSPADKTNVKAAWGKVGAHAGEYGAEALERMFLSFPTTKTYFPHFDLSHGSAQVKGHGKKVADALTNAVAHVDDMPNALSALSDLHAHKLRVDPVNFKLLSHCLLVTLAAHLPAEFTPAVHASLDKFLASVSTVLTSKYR

B1: alpha hemoglobin stabilizing protein (other, UniProt Q9NZD4 1-102, looked up)
chain: MALLKANKDLISAGLKEFSVLLNQQVFNDPLVSEEDMVTVVEDWMNFYINYYRQQVTGEPQERDKALQELRQELNTLANPFLAKYRDFLKSHELPSHPPPSS
notes: Comparison analyte in the BLI assay; also called AHSP
Kd: 109 nM
